Data published in patent US20230295324A1 (published 2023).
Values belong to the binder of their own block, whether it stands above or below them.

Key:
[1] = target: T1, cynomolgus monkey OX40 protein (Novoprotein, #CB17) (cynomolgus monkey); assay: ELISA, coated cyno OX40 protein
T1 construct: Bought recombinant protein; also called cyno OX40
Experimental: (§1) This example is intended to investigate the in vitro binding activity of the anti-OX40 HCAb monoclonal antibodies prepared in Example 1 to human and cynomolgus monkey OX40 proteins. The antibody binding assay at the protein level was performed using a human OX40 protein (Acro biosystem, #OX0-H5224) and a cynomolgus monkey OX40 protein (Novoprotein, #CB17). Briefly, a 384-well plate (PerkinElmer, #6007509) was coated with 1 μg/mL human OX40 protein and a cynomolgus monkey OX40 protein dissolved in PBS at 20 μL/well, and incubated at 4° C. overnight. The next day, the 384-well plate was washed three times with PBS containing 0.05% Tween (MEDICAGO, #09-9410-100), and blocked with PBS containing 2% milk (Bio-Rad, #170-6404) at 37° C. for 1 h. […] The plate was added with a stop buffer (BBI life sciences, #E661006-0200) at 20 μL/well, and read for OD₄₅₀₋₆₅₀ values using a plate reader (Molecular Devices, model: SpectraMax Plus). The values were analyzed with Graphad 8.0 and plotted.

[2] = target: T2, human OX40 on cells (CHO-K1/hu OX40) (human, UniProt P43489 29-277); assay: FACS, blocking of biotin-human OX40L on CHO-K1/hu OX40 cells
T2 construct: whole, on cells; Also used here for OX40 on the HEK293/OX40/NF-kb reporter cells and on human T cells in the functional assays; also called CHO-K1/OX40; human OX40 cells
T2 sequence (looked up): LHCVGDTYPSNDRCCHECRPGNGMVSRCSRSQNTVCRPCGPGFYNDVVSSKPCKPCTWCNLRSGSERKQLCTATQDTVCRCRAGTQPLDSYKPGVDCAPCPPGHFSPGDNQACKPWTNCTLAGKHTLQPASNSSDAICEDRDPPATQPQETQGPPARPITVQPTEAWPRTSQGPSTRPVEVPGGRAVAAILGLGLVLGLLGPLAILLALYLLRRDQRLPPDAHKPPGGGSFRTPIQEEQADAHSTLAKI
Experimental: Briefly, the CHO-K1/hu OX40 cells were digested and resuspended in an F-12K complete medium, and the cell density was adjusted to 1×10⁶ cells/mL. The cells were seeded in a 96-well V-bottom plate (Corning, #3894) at 100 μL/well, and centrifuged, and then the supernatant was discarded. The test antigen-binding proteins diluted in a 3-fold gradient at concentrations that were 2 times the final concentrations were added at 100 μL/well, and the mixture was well mixed, wherein the antigen-binding protein had the highest final concentration of 100 nM, and a total of 8 concentrations were obtained. […] The cells were incubated at 4° C. for 1 h away from light. Thereafter, the cells were centrifuged at 4° C. for 5 min, and then the supernatant was discarded. […] The cells in each well were rinsed twice with 100 μL of pre-cooled PBS, and centrifuged at 500 g at 4° C. for 5 min, and then the supernatant was discarded. A 1:200 fluorescent secondary antibody PE Streptavidin (BD Biosciences, #554061) was added at 100 μL/well, and the cells were incubated away from light at 4° C. for 30 min. The cells in each well were rinsed twice with 200 μL of pre-cooled PBS, and centrifuged at 500 g at 4° C. for 5 min, and then the supernatant was discarded. Finally, the cells in each well were resuspended in 200 μL of precooled PBS. Fluorescence signal values were read using BD FACS CANTOII, and IC50 was calculated. Inhibition rate %={average MFI of non-blocking control well−MFI value of OX40 antibody}/{(average MFI of non-blocking control well)−average MFI of 100% blocking control well)}×100%.

[3] = target: T3, human OX40 protein (Acro biosystem, #OX0-H5224) (human, UniProt P43489 29-216); assay: BLI, antibody on ProA sensor, 1:1 global fit
T3 construct: Bought recombinant protein
T3 sequence (looked up): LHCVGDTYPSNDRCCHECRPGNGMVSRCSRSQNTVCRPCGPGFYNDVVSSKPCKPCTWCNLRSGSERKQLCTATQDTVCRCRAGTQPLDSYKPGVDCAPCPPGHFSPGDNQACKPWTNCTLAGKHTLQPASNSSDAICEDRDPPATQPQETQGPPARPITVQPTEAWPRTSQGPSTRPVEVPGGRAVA
Experimental: (§2) The binding kinetics between the antigen and the antibody was analyzed by the Biolayer Interferometry (BLI) technique using an Octet Red 96e molecular interaction analyzer (Fortebio).
(§3) The association and dissociation signals between the OX40 antibodies and OX40 proteins were recorded by Octet Red 96 in real time. When data analysis was performed using Octet Data Analysis software (Fortebio, version 11.0), 0 nM was used as a reference hole, and reference subtraction was performed; the “1:1 Global fitting” method was selected to fit the data, and the kinetics parameters of the binding of antigens to antigen-binding proteins were calculated, with kon(1/Ms) values, kdis(1/s) values and KD(M) values obtained.

[4] = target: T1, cynomolgus monkey OX40 protein …; assay: BLI, antibody on ProA sensor, 1:1 global fit
Experimental: as §2, §3

[5] = target: T2, human OX40 on cells (CHO-K1/hu OX40); assay: cell-based or functional assay
[6] = target: T2, human OX40 on cells (CHO-K1/hu OX40); assay: FACS, CHO-K1/hu OX40 cells
Experimental: This example is intended to investigate the in vitro binding activity of anti-human OX40 HCAb monoclonal antibodies to human OX40. The antibody binding assay at the cellular level was performed using a stable CHO-K1 cell strain overexpressing human OX40 (CHO-K1/hu OX40). Briefly, the CHO-K1/hu OX40 cells were digested, resuspended in an F12K complete medium and washed once with PBS. The cell density was adjusted to 1×10⁶ cells/mL with PBS. The cells were seeded in a 96-well V-bottom plate (Corning, #3894) at 100 μL/well, and centrifuged, and then the supernatant was discarded. Then, the test antibodies diluted in a 3-fold gradient at concentrations that were 2 times the final concentrations were added at 100 μL/well. The cells were incubated at 4° C. for 1 h away from light. Thereafter, the cells in each well were rinsed twice with 100 μL of pre-cooled PBS, and centrifuged at 500 g at 4° C. for 5 min, and then the supernatant was discarded. […] The plate was incubated away from light at 4° C. for 30 min. The cells in each well were rinsed twice with 100 μL of pre-cooled PBS, and centrifuged at 500 g at 4° C. for 5 min, and then the supernatant was discarded. Finally, the cells in each well were resuspended in 200 μL of pre-cooled PBS, and the fluorescence signal values were read using a BD FACS CANTOII.

[7] = target: T3, human OX40 protein (Acro biosystem, …); assay: ELISA, coated human OX40 protein
Experimental: as §1

EC50 [1]: 0.116 nM
Maximum OD [1]: 2.05 OD
Maximum inhibition rate (%) [2]: 0%
EC50, HEK293/OX40/NF-kb luciferase reporter [5]: 67 nM
Maximum fluorescence signal value, HEK293/OX40/NF-kb luciferase reporter [5]: 141000 luminescence
EC50 [6]: 24.6 nM
Maximum MFI [6]: 1380 MFI
EC50 [7]: 0.065 nM
Maximum OD [7]: 2.8 OD
B5: PR002076 (antibody, human IgG1, V domains shown)
VH: EVQLLESGGGLVQPGGSLRLSCAASGFTFSSYAMSWVRQAPGKGLEWVSAISGSGGNTYYADSVRGRFTISRDNSKNTLYLQMNSLRAEDTAVYYCANGMTGTTDVDYWGQGTRVTVSS
notes: no light chain; also called anti-OX40 HCAb antibody

EC50 [1]: 0.146 nM
Maximum OD [1]: 2.55 OD
IC50 [2]: 75.2 nM
Maximum inhibition rate (%) [2]: 24%
EC50, HEK293/OX40/NF-kb luciferase reporter [5]: 6.39 nM
Maximum fluorescence signal value, HEK293/OX40/NF-kb luciferase reporter [5]: 121000 luminescence
EC50 [6]: 6.55 nM
Maximum MFI [6]: 3260 MFI
EC50 [7]: 0.085 nM
Maximum OD [7]: 2.38 OD
B7: PR002073 (antibody, human IgG1, V domains shown)
VH: EVQLVESGGGLVQPGGSLRLSCAASGFTFSSYAMSWVRQAPGKGLEWVSAISGGSGSTFYADSVRGRFTISRDNSKNTLYLQMNSLRAEDTAVYYCADGVTGTDFDFWGQGTLVTVSS
notes: as for B5

EC50 [1]: 0.14 nM
Maximum OD [1]: 2.34 OD
IC50 [2]: 43.1 nM
Maximum inhibition rate (%) [2]: 81%
EC50, HEK293/OX40/NF-kb luciferase reporter [5]: 3.08 nM
Maximum fluorescence signal value, HEK293/OX40/NF-kb luciferase reporter [5]: 84800 luminescence
EC50 [6]: 1.27 nM
Maximum MFI [6]: 3540 MFI
EC50 [7]: 0.0512 nM
Maximum OD [7]: 2.35 OD
B8: PR002074 (antibody, human IgG1, V domains shown)
VH: EVQLLESGGGLVQPGGSLRLSCAASGFTFSSYAMSWVRQAPGKGLEWVSGISGGGNNTFYADSVRGRFTISRDNSKNTLYLQMNSLRAEDTAVYYCMRGWELPLLENWGQGTLVTVSS
notes: as for B5

EC50 [1]: 0.194 nM
Maximum OD [1]: 2.23 OD
Kd [4]: 0.0894 nM
B9: Pogalizumab analog (PR003475) (antibody, human IgG1, kappa, V domains shown)
VH: EVQLVQSGAEVKKPGASVKVSCKASGYTFTDSYMSWVRQAPGQGLEWIGDMYPDNGDSSYNQKFRERVTITRDTSTSTAYLELSSLRSEDTAVYYCVLAPRWYFSVWGQGTLVTVSS
VL: DIQMTQSPSSLSASVGDRVTITCRASQDISNYLNWYQQKPGKAPKLLIYYTSRLRSGVPSRFSGSGSGTDFTLTISSLQPEDFATYYCQQGHTLPPTFGQGTKVEIKR
notes: Conventional IgG antibody; also called Tab

The next lines start with the binder.

B1: PR002063 (antibody, human IgG1, V domains shown)
VH: EVQLLESGGGLVQPGGSLRLSCAASGFTFSSYAMSWVRQAPGRGLEWVSAISGGGGSTFYADSVRGRFTISRDNSKNTLYLQMSSLRAEDTAVYYCANGMTGTTDVDYWGQGTRVTVSS
notes: as for B5
EC50 [1]: 0.276 nM
Maximum OD [1]: 2.32 OD
Maximum inhibition rate (%) [2]: 17%
Kd [3]: 13 nM
koff [3]: 0.000511 s⁻¹
kon [3]: 39200 M⁻¹ s⁻¹
Kd [4]: 53.4 nM
koff [4]: 0.00192 s⁻¹
kon [4]: 36000 M⁻¹ s⁻¹
EC50, HEK293/OX40/NF-kb luciferase reporter [5]: 8.64 nM
Maximum fluorescence signal value, HEK293/OX40/NF-kb luciferase reporter [5]: 150000 luminescence
EC50 [6]: 9 nM
Maximum MFI [6]: 2240 MFI
EC50 [7]: 0.101 nM
Maximum OD [7]: 2.28 OD

B2: PR002065 (antibody, human IgG1, V domains shown)
VH: EVQLVESGGGLVQPGGSLRLSCAASGFTFSSYAMSWVRQAPGKGLEWVSAISGRGDITFYADSVRGRFTISRDNSKNTLYLQMNSLRAEDTALYYCANGMTGSTDVDFWGQGTLVTVSS
notes: as for B5
EC50 [1]: 0.103 nM
Maximum OD [1]: 1.92 OD
IC50 [2]: 49.6 nM
Maximum inhibition rate (%) [2]: 44%
Kd [3]: 6.79 nM
koff [3]: 0.000337 s⁻¹
kon [3]: 49600 M⁻¹ s⁻¹
Kd [4]: 33.7 nM
koff [4]: 0.00104 s⁻¹
kon [4]: 30800 M⁻¹ s⁻¹
EC50, HEK293/OX40/NF-kb luciferase reporter [5]: 8.55 nM
Maximum fluorescence signal value, HEK293/OX40/NF-kb luciferase reporter [5]: 149000 luminescence
EC50 [6]: 3.82 nM
Maximum MFI [6]: 2860 MFI
EC50 [7]: 0.0639 nM
Maximum OD [7]: 2.47 OD

B3: PR002071 (antibody, human IgG1, V domains shown)
VH: EVQLVESGGGLVQPGGSLRLSCAASGFTFSSYAMSWVRQAPGKGLEWVSAISGGGGSIFYADSVRGRFTISRDNSKNTLYLQMNSLRAEDTAVYYCANGMTGTTDVDYWGQGTLVTVSS
notes: as for B5
EC50 [1]: 0.202 nM
Maximum OD [1]: 2.93 OD
IC50 [2]: 51.7 nM
Maximum inhibition rate (%) [2]: 50%
EC50, HEK293/OX40/NF-kb luciferase reporter [5]: 7.85 nM
Maximum fluorescence signal value, HEK293/OX40/NF-kb luciferase reporter [5]: 144000 luminescence
EC50 [6]: 4 nM
Maximum MFI [6]: 3060 MFI
EC50 [7]: 0.0502 nM
Maximum OD [7]: 2.45 OD

B4: PR002072 (antibody, human IgG1, V domains shown)
VH: EVQLLESGGGLVQPGGSLRLSCAASGFTFSSYAMSWVRQASGKGLEWISAISGSGGSTYYADSVRGRFTISRDNSKNTLYLQMNSLRADDTAVYYCANGMTGTTDVDFWGQGTPVTVSS
notes: as for B5
EC50 [1]: 0.217 nM
Maximum OD [1]: 2.97 OD
Maximum inhibition rate (%) [2]: 14%
EC50, HEK293/OX40/NF-kb luciferase reporter [5]: 14.2 nM
Maximum fluorescence signal value, HEK293/OX40/NF-kb luciferase reporter [5]: 99600 luminescence
EC50 [6]: 5.64 nM
Maximum MFI [6]: 1400 MFI
EC50 [7]: 0.0577 nM
Maximum OD [7]: 2.47 OD

B6: PR002058 (antibody, human IgG1, V domains shown)
VH: EVQLLESGGGLVQPGGSLRLSCAASGFTFSSYAMSWVRQAPGKGLEWVSAISGGSGSTFYADSVRGRFTISRDNSKNTLYLQMNSLRAEDTAVYYCADGVTGTDFDFWGQGTLVTVSS
notes: as for B5
EC50 [1]: 0.0597 nM
Maximum OD [1]: 1.76 OD
IC50 [2]: 98.1 nM
Maximum inhibition rate (%) [2]: 38%
EC50, HEK293/OX40/NF-kb luciferase reporter [5]: 4.29 nM
Maximum fluorescence signal value, HEK293/OX40/NF-kb luciferase reporter [5]: 136000 luminescence
EC50 [6]: 5.79 nM
Maximum MFI [6]: 3560 MFI
EC50 [7]: 0.0629 nM
Maximum OD [7]: 1.94 OD
